# Assay results: article PMC9481538, “The interaction between LC8 and LCA5 reveals a novel oligomerization function of LC8 in the ciliary-centrosome system” (Scientific Reports, 2022)
# B1: sLCA5-WT: truncated LCA5 96–430 fused to an N-terminal MBP tag (protein)
# chain: DTDLVTKRILSARLLKINELQNEVSELQVKLAELLKENKSLKRLQYRQEKALNKFEDAENEISQLIFRHNNEITALKERLRKSQEKERATEKRVKDTESELFRTKFSLQKLKEISEARHLPERDDLAKKLVSAELKLDDTERRIKELSKNLELSTNSFQRQLLAERKRAYEAHDENKVLQKEVQRLYHKLKEKERELDIKNIYSNRLPKSSPNKEKELALRKNAACQSDFADLCTKGVQTMEDFKPEEYPLTPETIMCYENKWEEPGHLTLDLQSQKQDRHGEAGILNPIMEREEKFVTDEELHVVKQEVEKLEDEWEREELDKKQKEKASLLER
# modifications: left off: MBP, N-terminal, kept | His6, C-terminal, kept
# notes: truncated LCA5 96–430 fused to an N-terminal MBP tag
# What was measured:
# CD thermal denaturation = assay type: physicochemical; details: CD at 222 nm, 10–80 °C
# Experimental: (§1) CD experiments were carried out on a Jasco J-810 spectropolarimeter using a 1 mm quartz cuvette. For the spectra of the individual constructs, 8 scans were recorded and averaged between 200 nm or 190 nm and 260 nm (in continuous scanning mode, data pitch: 0.2 nm, scanning speed: 50 nm/min, response: 2 s, bandwidth: 2 nm). sLCA5-WT and the mutants were measured at 0.1 mg/ml concentration. 1.2 μM LCA5 and 6 μM LC8 were complexed and analyzed. The spectra of LC8 at a concentration of 6 μM was recorded under the same experimental conditions as described before and subtracted from the individual CD spectra of the sLCA5-LC8 complexes. The baseline subtracted data were evaluated using the BeStSel web-server (http://bestsel.elte.hu/index.php)[46],[47]. Thermal denaturation experiments were recorded at 222 nm between 10 and 80 °C using 1 °C/min heating rate. The thermal denaturation profile was fitted according to the Gibbs–Helmholtz equation assuming a two-state model as described by Shih et al[48]. After fitting, the curves were normalized by the following equation. y=-m^∘-An-T∗mn/Ad-An+md-mnT-1 where y is the ratio of native and unfolded state, An and Ad are the initial values of the Gibbs–Helmholtz equation belong to the native and denatured state, mn and md are the slopes belong to the An and Ad values, m° is the measured CD value in millidegree and T is the temperature in °C.
# GST-fused LC8 = experiment: GST pull-down of LC8 and sLCA5; assay type: binding; details: GST-LC8 bait, MBP-, 6x-His-fused sLCA5 prey, PBS, 1 mM DTT, room temperature; result in words
# Experimental: For the pull-down experiments, GST-fused LC8 was used as bait, and MBP-, 6x-His-fused LCA5 variants as prey. For controls, GST and MBP were used. Proteins were expressed in 100 ml cultures of E. coli BL21 (DE3) Rosetta cells as described above. Cells were harvested, resuspended in 5 ml PBS supplemented with 1 mg/ml lysozyme and 1 mM DTT, sonicated and clarified by centrifugation. 20 μl of Glutathione Sepharose 4B (Macherey–Nagel) (75%) resin was used for each experiment. Baits were incubated with the resin for 1 h at room temperature, then washed with PBS supplemented with 1 mM DTT. Prey proteins were added and incubated for one hour. The beads were washed and eluted by boiling in a 2 × SDS sample buffer and analyzed in tricine SDS page according to the protocol of Schagger et al[43].
# LC8 [1] = molecular target: T1, LC8 (Homo sapiens, UniProt Q96FJ2); experiment: composition of complexes of LC8 binding partners (Supplementary Table S1); details: this paper's constructs
# T1 construct: 6xHis (N); made in house; host or cells: E. coli BL21 (DE3) Rosetta
# T1 sequence (Q96FJ2 whole entry): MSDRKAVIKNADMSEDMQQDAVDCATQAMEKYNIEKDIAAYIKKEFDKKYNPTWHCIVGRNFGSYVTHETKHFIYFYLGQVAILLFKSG
# Excerpt: Number of LC8 Number of Ratio of LCA5
# LC8 binding monomeric binding monomeric LC8 in monomers to LC8
# Gene name sites partners in complex complex monomers
# Supplementary Table S1. Stoichiometries of various LC8 binding partners in complex with LC8. Known LC8 binding partners according to literature data always form dimers upon LC8 binding. The stoichiometry is basically 1:1 in case of one LC8 binding site,where 2 monomeric partners are dimerized by binding one dimeric LC8. This ratio could increase up to 1:11 in case of ASCIZ where the dimeric ASCIZ possibly could bind 11 LC8 dimers in […]
# occupied. According to our ITC and CD spectroscopy data, we proposed a very different binding model where the LCA5 forms likely […] alone and LC8 could interconnect this dimerized, moreover the possible binding sites are not fully occupied. […]
# and 1:1 ratio case of single mutant LCA5 construct where one binding site presented and in case of wild type LCA5 where 2 binding sites presented, respectively.
# LC8 [2] = molecular target: T1, LC8; experiment: isothermal titration calorimetry, sLCA5 fragments titrated with LC8; assay type: binding; details: ITC, PBS pH 7.4, 1 mM TCEP, 37 °C; MBP-fused sLCA5 titrated with LC8
# Experimental: LC8 and MBP-fused LCA5 constructs were prepared in PBS supplemented with 1 mM TCEP. Before measurement, protein samples were dialyzed overnight in PBS pH 7.4 (Orange Scientific, OrDial D14 membrane). Peptides were diluted from stock with the buffer used for dialysis. The concentration of samples was determined based on absorbance at 280 nm in the case of proteins, and 205 nm for the peptide. Experiments were performed using MicroCal PEAQ-ITC (Malvern Panalytical), LCA5 peptides were measured at 25 °C, proteins were analyzed at 37 °C. Lebercilin peptide was injected into the cell 18 times 2 μl volumes, with 5 min timing between injections. In case of the protein, LCA5 was placed in the sample cell, and LC8 was injected during 37 injections, 1 μl each. The results were evaluated using MicroCal PEAQ-ITC Analysis Software.
# [3] = analytical gel filtration; assay type: physicochemical
# Experimental: For analytical gel filtration a Superose 6 Increase 10/300 (Cytiva) was used with an effective resolution between 5–5000 kDa range and a void volume above 5000 kDa. The column was equilibrated in DPBS supplemented with 200 μM TCEP. The calibration curve was fitted on the chromatogram of gel filtration standard mix (BioRad) with the addition of Dextran Blue to determine the void volume. 100 μl of LCA5 purified protein or LCA5-LC8 complex was injected at the concentration of 30 μM for LCA5 and 150 μM for LC8, with a flow rate of 500 μl/min immediately or after 60 min of incubation at 37 °C. For densitometric analysis, fractions were collected and 200 μl of samples were precipitated in 1.8 ml 96% ethanol at − 80 °C for 2 h. The samples were centrifugated for 30 min at 14,000 g, and dissolved in 15 μl of SDS sample buffer. 10 μl of each sample was run on Tricine-SDS gel. The calibration of the densitometry was performed on samples of known molar ratio of sLCA5 construct and LC8 (see the original gel used for calibration on Suplementary Fig. S16). Data evaluation was performed by using Origin 8 software and Fiji ImageJ software.
# [4] = CD spectroscopy, helical content; assay type: physicochemical
# Experimental: as §1, with “°C. […]” for “°C.”
# [5] = negative staining transmission electron microscopy of sLCA5-LC8 complexes; assay type: physicochemical
# Experimental: For TEM negative staining experiments, a JEOL JEM-1011 (JEOL Ltd., Tokyo, Japan) electron microscope was used. The purified LCA5-LC8 complexes or LC8 or LCA5 forms alone were put together by using LCA5-WT or the single or double mutants at 30 μM and LC8 at 150 μM concentration in a buffer of 20 mM Tris 70 mM NaCl, pH 7.4, and incubated at 37 °C for 1 h. The complexes were diluted to a final 0.2 mg/ml concentration in the buffer and applied to 300 mesh formvar/carbon-coated copper grids (SPI Inc., USA). After 2 min of incubation the surplus was removed by filter paper and 1% uranyl acetate was applied for 1 min as negative staining. Images were taken around the middle of the grid at 5000, 50,000, 150,000 and 300,000-fold magnification. The collected data was analyzed by Fiji ImageJ software, and the statistical analysis was carried out in Origin 8 software.
molecule,measurement,setting,value
B1,melting temperature Tm,"CD thermal denaturation; 1 °C/min, two-state fit, without or with LC8 as label shows","41,1 °C"
same,increase in melting temperature on LC8 binding,CD thermal denaturation; sLCA5 in complex with LC8 vs without,~ 5 °C
same,interaction with LC8 (GST pull-down),GST-fused LC8,can bind LC8
same,LC8 binding sites,LC8 [1],2
same,− TΔS,LC8 [2],3.28 kcal/mol
same,estimated molar mass (gel filtration),"[3]; Superose 6 Increase 10/300, DPBS, 200 μM TCEP, void volume above 5000 kDa, listed as wild-type LCA5 construct",~ 610 kDa
same,void fraction (higher order oligomers),"[3]; gel filtration void volume, result in words",remarkable increase in the void volume fraction
same,increase of the difference between incubated wild type and sLCA5-ΔCQS complexes,"[3]; void fraction, prolonged incubation with LC8",~ 3.5 fold
same,stronger propensity to form higher order oligomers vs sLCA5-ΔCQS,"[3]; void volume fraction size, with LC8 in fivefold molar excess",~ 20%
same,void fraction increment on incubation,"[3]; with LC8, 60 min at 37 °C vs non-incubated complex",324%
same,molar ellipticity curve upon addition of LC8,"[4]; 20 °C, LC8 in fivefold molar excess, vs sLCA5-WT without LC8, result in words",remained the same
same,helical structures preserved at higher temperatures,"[4]; CD, BeStSel, 20 vs 40 °C, in the presence of LC8, LC8 and MBP-tag subtracted",80%
same,measured diameter median of spherical complexes,"[5]; 30 μM sLCA5 + 150 μM LC8, 37 °C 1 h, 20 mM Tris 70 mM NaCl pH 7.4",~ 39 nm
same,increase in size of complexes vs sLCA5-ΔCQS complexes,"[5]; TEM diameters with LC8, significant by two sample t-test, p = 0.05",20%
